Measurements published in patent US20100330095A1 (U3 PHARMA, published 2010).

B1: ch11B7-IgG2 (antibody, V domains shown)
VH: EVQLQESGPGLVKPSQSLSLTCSVTGYSITSNYWGWIRKFPGDKMEWMGYITYSGSTSYNPSLKSRISITRDTSKNQFFLQLNSVTSEDTATYYCAITTFYYWGQGVMVTVSS
VL: DIQMTQAPSSLPASLGDRVTITCRASQDIGNYLRWFQQKPGKSPRLMISGATNLAAGVPSRFSGSRSGSDYSLTISSLESEDMADYYCLQSKESPWTFGGGTKLELKR
notes: chimeric rat/human IgG2 kappa, expressed in HEK 293 cells; also called chn11B7 IgG2
B2: ch11D5-IgG2 (antibody, V domains shown)
VH: EVQLQESGPGLVKPSQSLSLTCSVTGYSITSNYWGWIRKFPGNKMEWIGHITNSGNTTYNPSLKSRISISRDTSRNQFFLQLNSVTTEDTATYYCAKGAFDYWGQGVMVTVSS
VL: DIQMTQSPSSMSTSLGDRVTITCRASQDIGNYLSWFQQKVGKSPRRMIYGAIKLAVGVPSRFSGSRSGSDYSLTISSLESEDMAIYYCLQYIQFPLTFGSGTKLELKR
notes: chimeric rat/human IgG2 kappa, expressed in HEK 293 cells; also called chn11D5 IgG2

Biological target: T1, human receptor tyrosine kinase AXL transcript variant 1 (human, UniProt P30530 26-894)
T1 construct: Overexpressed on RatI-AXL cl.2 and NIH3T3-AXL cl.7 fibroblasts (pLXSN-hAXL); endogenous on human cancer cell lines and HUVEC in the functional assays; also called hAXL; human AXL
T1 sequence: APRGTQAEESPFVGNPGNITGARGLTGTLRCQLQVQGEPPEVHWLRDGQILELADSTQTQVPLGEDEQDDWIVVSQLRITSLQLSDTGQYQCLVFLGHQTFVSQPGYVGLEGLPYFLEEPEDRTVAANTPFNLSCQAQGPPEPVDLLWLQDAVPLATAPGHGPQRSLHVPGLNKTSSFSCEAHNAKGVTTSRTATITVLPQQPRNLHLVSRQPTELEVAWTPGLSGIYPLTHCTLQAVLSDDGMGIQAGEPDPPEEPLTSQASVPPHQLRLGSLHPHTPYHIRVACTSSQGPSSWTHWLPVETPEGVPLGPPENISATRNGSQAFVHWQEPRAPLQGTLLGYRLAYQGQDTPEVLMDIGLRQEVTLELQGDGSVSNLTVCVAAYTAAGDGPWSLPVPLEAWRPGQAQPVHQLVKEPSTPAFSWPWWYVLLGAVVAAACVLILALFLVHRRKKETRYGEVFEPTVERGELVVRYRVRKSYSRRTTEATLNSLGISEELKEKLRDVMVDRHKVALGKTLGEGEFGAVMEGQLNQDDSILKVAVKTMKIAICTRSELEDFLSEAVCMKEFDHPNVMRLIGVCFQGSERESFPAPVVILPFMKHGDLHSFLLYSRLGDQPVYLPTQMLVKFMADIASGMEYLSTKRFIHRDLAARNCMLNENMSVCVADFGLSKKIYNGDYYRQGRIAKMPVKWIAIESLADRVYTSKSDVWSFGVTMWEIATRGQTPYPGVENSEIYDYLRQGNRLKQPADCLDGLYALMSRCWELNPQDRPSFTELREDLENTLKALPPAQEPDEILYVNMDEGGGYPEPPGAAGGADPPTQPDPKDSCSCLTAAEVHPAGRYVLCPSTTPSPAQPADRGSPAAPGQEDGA
Experiment: FACS Scatchard (apparent KD) on human AXL overexpressing NIH3T3 cells
Procedure: Human AXL overexpression NIH3T3 cells were harvested by incubation with 10 mM EDTA in PBS and resuspended at 6 million cells per ml in FACS buffer (PBS pH 7.4, 3% FCS, 0.1% NaN₃). […] Antibody binding was allowed to proceed for 2 hours on ice. Then, cells were washed twice with 250 μl FACS buffer per well, and resuspended in 200 μl of secondary antibody (anti-rat-PE; Jackson) diluted 1:50 in FACS buffer. After 45 minutes of incubation, cells were again washed twice in FACS buffer and resuspended in […] PBS for FACS analysis. Analysis was carried out on a Beckman-Coulter FACS FC500. To determine the apparent affinity constant KDapp, mean fluorescence values were plotted against the ratio of mean fluorescence and the corresponding antibody concentration ([M]).

Row | Binder | Kd
1 | B1 | 0.6 nM
2 | B2 | 0.9 nM
